Experimental data published in patent US20240191188A1 (JUNO THERAPEUTICS, published 2024).

Target: T1, soluble oligomeric streptavidin mutein (oligomer of Strep-tactin, n≥3, crosslinked with sulfo-SMCC and … (Streptomyces avidinii, UniProt P22629 38-163, chemically crosslinked with sulfo-SMCC and iminothiolan))
T1 construct: Oligomers of homo-tetramers separated from monomeric and dimeric mutein by size exclusion chromatography; no single molecular weight; also called soluble oligomeric Strep-tactin; oligomeric mutein streptavidin
Test: mixing of peptide-tagged Fab with soluble oligomeric streptavidin mutein at room temperature

binding result: binds
B1: αCD28 Fab fragment derived from the monoclonal anti-human CD28 antibody CD28.3, heavy chain carboxy-terminally fused to the Twin-Strep-tag (monomeric) (Fab)
heavy (part 1 of 2): LQQSGAELVKPGASVRLSCKASGYTFTEYIIHWIKLRSGQGLEWIGWFYPGSNDIQYNAKFKGKATLTADKSSSTVYMELTGLTSEDSAVYFCARRDDFSGYDALPYWGQGTMVTV
heavy (part 2 of 2): not shown
light: DIQMTQSPASLSVSVGETVTITCRTNENIYSNLAWYQQKQGKSPQLLIYAATHLVEGVPSRFSGSGSGTQYSLKITSLQSEDFGNYYCQHFWGTPCTFGGGTKLEIKR
notes: Recombinantly produced in E. coli; also called anti-CD28 Fab fragment; αCD28 Fab fragment of the antibody 28.3; not shown: human kappa light chain constant domain
